This assay addresses GFP-encoding lentiviral particles.

As for “StrepTactin Superflow column (0.2 mL resin bed, 3 mg binding capacity per mL; IBA Lifesciences GmbH)”, the GFP+ cells (gate over CD8- and CD8+ cells) among T cells five days after transduction with the biotin elution fraction of the column without VBP (-VB), by flow cytometry is 0.069%.

The values are drawn from US20250297282A1.
